Data as given in PMC11187117, “Structure of the endosomal CORVET tethering complex” (Nature Communications, 2024).

Columns and labels:
[1] = biological target: T1, Vps16 (CORVET and HOPS subunit, SNARE-binding module) (yeast, UniProt Q03308 1-798); assay: cryo-EM structure; single-particle cryo-EM of the hexameric CORVET co-expressed in yeast and purified by 3xFLAG on Vps8 and SEC; about 0.8 mg/ml; consensus map 4.6 Å, local refinements to 3.8 Å; settings: both partners purified
T1 construct: Vps16, yeast, subunit shared by CORVET and HOPS
T1 sequence: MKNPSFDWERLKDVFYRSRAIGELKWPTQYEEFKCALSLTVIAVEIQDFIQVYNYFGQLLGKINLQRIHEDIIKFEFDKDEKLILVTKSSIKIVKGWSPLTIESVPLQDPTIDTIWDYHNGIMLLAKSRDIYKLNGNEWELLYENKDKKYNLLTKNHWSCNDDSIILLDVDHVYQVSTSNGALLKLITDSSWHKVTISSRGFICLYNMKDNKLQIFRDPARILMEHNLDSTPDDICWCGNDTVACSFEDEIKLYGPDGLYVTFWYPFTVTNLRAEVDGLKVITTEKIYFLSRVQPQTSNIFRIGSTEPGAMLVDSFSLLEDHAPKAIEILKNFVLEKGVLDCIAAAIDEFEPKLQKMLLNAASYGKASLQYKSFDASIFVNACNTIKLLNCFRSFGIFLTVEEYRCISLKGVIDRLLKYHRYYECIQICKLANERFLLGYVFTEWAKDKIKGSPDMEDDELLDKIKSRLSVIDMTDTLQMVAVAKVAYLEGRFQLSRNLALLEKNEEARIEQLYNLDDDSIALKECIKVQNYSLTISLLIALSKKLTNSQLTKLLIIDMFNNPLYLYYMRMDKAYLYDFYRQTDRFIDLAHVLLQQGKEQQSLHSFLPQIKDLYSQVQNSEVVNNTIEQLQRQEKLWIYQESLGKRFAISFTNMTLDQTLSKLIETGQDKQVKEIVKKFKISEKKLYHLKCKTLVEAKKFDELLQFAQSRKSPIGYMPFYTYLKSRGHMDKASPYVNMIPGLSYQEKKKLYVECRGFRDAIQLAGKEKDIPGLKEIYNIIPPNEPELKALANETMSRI

[2] = biological target: T2, Vps18 (CORVET and HOPS core subunit) (yeast, UniProt P27801 1-918); assay: as above; settings: both partners purified
T2 construct: Vps18, yeast, core subunit shared by CORVET and HOPS
T2 sequence: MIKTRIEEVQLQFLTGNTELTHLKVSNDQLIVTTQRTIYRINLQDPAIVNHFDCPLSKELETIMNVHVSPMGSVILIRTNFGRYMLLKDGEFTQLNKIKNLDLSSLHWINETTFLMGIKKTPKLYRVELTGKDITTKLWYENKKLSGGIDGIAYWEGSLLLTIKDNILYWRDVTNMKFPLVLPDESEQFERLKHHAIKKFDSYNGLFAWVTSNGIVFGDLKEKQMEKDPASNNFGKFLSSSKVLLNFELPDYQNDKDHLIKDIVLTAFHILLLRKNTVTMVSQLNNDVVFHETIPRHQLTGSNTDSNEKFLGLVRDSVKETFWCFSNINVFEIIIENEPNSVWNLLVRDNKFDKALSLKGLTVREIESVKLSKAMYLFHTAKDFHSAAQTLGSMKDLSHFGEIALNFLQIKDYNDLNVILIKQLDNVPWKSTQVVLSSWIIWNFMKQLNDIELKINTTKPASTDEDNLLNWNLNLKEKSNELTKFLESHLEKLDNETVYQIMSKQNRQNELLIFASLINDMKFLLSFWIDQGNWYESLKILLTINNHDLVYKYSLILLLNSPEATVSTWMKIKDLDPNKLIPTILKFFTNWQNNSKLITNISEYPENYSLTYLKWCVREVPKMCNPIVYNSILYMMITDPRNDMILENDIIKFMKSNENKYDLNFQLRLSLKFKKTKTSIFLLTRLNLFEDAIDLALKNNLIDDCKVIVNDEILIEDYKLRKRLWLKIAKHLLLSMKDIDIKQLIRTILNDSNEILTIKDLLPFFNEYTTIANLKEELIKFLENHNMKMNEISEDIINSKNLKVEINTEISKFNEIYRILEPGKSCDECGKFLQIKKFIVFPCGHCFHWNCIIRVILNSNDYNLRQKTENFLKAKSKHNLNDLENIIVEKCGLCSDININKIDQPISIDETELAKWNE

binding result [1]: binds
binding result [2]: binds
B1: Vps33 (CORVET and HOPS subunit, SM protein of the SNARE-binding module) (natural protein, yeast)
chain: MNRFWNTKKFSLTNADGLCATLNEISQNDEVLVVQPSVLPVLNSLLTFQDLTQSTPVRKITLLDDQLSDDLPSALGSVPQMDLIFLIDVRTSLRLPPQLLDAAQKHNLSSLHIIYCRWKPSFQNTLEDTEQWQKDGFDLNSKKTHFPNVIESQLKELSNEYTLYPWDLLPFPQIDENVLLTHSLYNMENVNMYYPNLRSLQSATESILVDDMVNSLQSLIFETNSIITNVVSIGNLSKRCSHLLKKRIDEHQTENDLFIKGTLYGERTNCGLEMDLIILERNTDPITPLLTQLTYAGILDDLYEFNSGIKIKEKDMNFNYKEDKIWNDLKFLNFGSIGPQLNKLAKELQTQYDTRHKAESVHEIKEFVDSLGSLQQRQAFLKNHTTLSSDVLKVVETEEYGSFNKILELELEILMGNTLNNDIEDIILELQYQYEVDQKKILRLICLLSLCKNSLREKDYEYLRTFMIDSWGIEKCFQLESLAELGFFTSKTGKTDLHITTSKSTRLQKEYRYISQWFNTVPIEDEHAADKITNENDDFSEATFAYSGVVPLTMRLVQMLYDRSILFHNYSSQQPFILSREPRVSQTEDLIEQLYGDSHAIEESIWVPGTITKKINASIKSNNRRSIDGSNGTFHAAEDIALVVFLGGVTMGEIAIMKHLQKILGKKGINKRFIIIADGLINGTRIMNSIS
notes: Vps33, yeast, subunit shared by CORVET and HOPS
